Measured values as given in patent publication US20140228277A1 (Genentech, published 2014).
Starred links: 1 amine or outer side, 2 acyl side, 3 side chain; linkers in the order of their positions; H or OH if unused. Positions of bridges follow the written chain, without caps; N, C: chain ends. NH(CH2)3(OCH2CH2)2O(CH2)3NH = C(CN[*:1])COCCOCCOCCCN[*:2]

Assays:
Assay in all cases: ELISA; biotinylated BACE020 on plate-coated BACE1 ECD mutant; ratio to WT
[1] = biological target: T1, human BACE1 ECD (22-457) G291A, His8 (human, UniProt P56817 22-457)
T1 construct: also called G291A (230)
T1 sequence (P56817 other isoform, or with tags, fused parts or gaps G291A G291A): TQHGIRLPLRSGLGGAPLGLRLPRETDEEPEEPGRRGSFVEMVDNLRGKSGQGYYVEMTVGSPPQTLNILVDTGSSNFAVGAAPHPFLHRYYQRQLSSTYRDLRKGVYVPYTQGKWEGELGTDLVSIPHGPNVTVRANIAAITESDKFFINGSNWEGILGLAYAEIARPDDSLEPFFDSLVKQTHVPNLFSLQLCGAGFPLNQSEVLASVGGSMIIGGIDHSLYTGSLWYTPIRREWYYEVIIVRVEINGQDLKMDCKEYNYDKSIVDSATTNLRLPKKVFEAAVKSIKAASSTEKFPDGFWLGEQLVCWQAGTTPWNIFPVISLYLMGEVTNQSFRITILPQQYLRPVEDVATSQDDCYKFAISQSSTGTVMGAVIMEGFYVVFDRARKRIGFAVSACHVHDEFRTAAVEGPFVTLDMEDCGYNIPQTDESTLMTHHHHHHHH
Description: (§1) Maxisorp microtiter plates (Nalge Nunc International, Rochester, N.Y.) were coated overnight at 4° C. with 2 μg/ml BACE1 mutant in 50 mM carbonate, pH 9.6. The coated wells were washed with buffer (PBS, 0.05% Polysorbate 20) and blocked with assay buffer (PBS, pH 7.4, 0.5% BSA, 0.05% Tween 20, 15 ppm Proclin) for 1 h at room temperature with gentle shaking. […] After washing, the amount of peptide bound to the plate was detected by the addition of Streptavidin-Horseradish Peroxidase Conjugate (GE Healthcare, Piscataway, N.J.) followed by the addition of TMB/H₂O₂ substrate (KPL, Gaithersburg, Md.). The reaction was quenched with 1 M phosphoric acid and the A₄₅₀ measured on a Molecular Devices SpectraMax Plus384 microplate reader. Concentrations to give half maximal effective concentration (EC₅₀) were determined using a 4-parameter non-linear regression curve-fitting program with Kaleidagraph (Synergy Software, Reading, Pa.). […] Concentrations to give half maximal inhibition concentration (IC₅₀) were determined using a 4-parameter non-linear regression curve-fitting program with Kaleidagraph.
(§2) The fold decrease in binding affinity was determined as the relative EC₅₀ values of EC₅₀ (mut)/EC₅₀ (WT), which are listed in Table 3.

[2] = biological target: T2, human BACE1 ECD (22-457) T133A, His8 (human, UniProt P56817 22-457)
T2 construct: also called T133A (72)
T2 sequence (P56817 other isoform, or with tags, fused parts or gaps T133A T133A): as the sequence (P56817 other isoform, or with tags, fused parts or gaps G291A G291A) above, with T112A, A270G counted along it
Description: as §1, §2

[3] = biological target: T3, human BACE1 ECD (22-457) T390A, His8 (human, UniProt P56817 22-457)
T3 construct: also called T390A (329)
T3 sequence (P56817 other isoform, or with tags, fused parts or gaps T390A T390A): as the sequence (P56817 other isoform, or with tags, fused parts or gaps G291A G291A) above, with A270G, T369A counted along it
Description: as §1, §2

[4] = biological target: T4, human BACE1 ECD (22-457) T292A, His8 (human, UniProt P56817 22-457)
T4 construct: also called T292A (231)
T4 sequence (P56817 other isoform, or with tags, fused parts or gaps T292A T292A): as the sequence (P56817 other isoform, or with tags, fused parts or gaps G291A G291A) above, with A270G, T271A counted along it
Description: as §1, §2

[5] = biological target: T5, human BACE1 ECD (22-457) K285A, His8 (human, UniProt P56817 22-457)
T5 construct: also called K285A (224)
T5 sequence (P56817 other isoform, or with tags, fused parts or gaps K285A K285A): as the sequence (P56817 other isoform, or with tags, fused parts or gaps G291A G291A) above, with K264A, A270G counted along it
Description: as §1, §2

[6] = biological target: T6, human BACE1 ECD (22-457) D93A, His8 (human, UniProt P56817 22-457)
T6 construct: also called D93A (32)
T6 sequence (P56817 other isoform, or with tags, fused parts or gaps D93A D93A): as the sequence (P56817 other isoform, or with tags, fused parts or gaps G291A G291A) above, with D72A, A270G counted along it
Description: as §1, §2

[7] = biological target: T7, human BACE1 ECD (22-457) W176A, His8 (human, UniProt P56817 22-457)
T7 construct: also called W176A (115)
T7 sequence (P56817 other isoform, or with tags, fused parts or gaps W176A W176A): as the sequence (P56817 other isoform, or with tags, fused parts or gaps G291A G291A) above, with W155A, A270G counted along it
Description: as §1, §2

B1: biotinylated BACE020 (Ac-NEESMYCRLLGIGCG-(PEG)3-biotin) (peptide)
peptide: Ac-NEESMYCRLLGIGCG-{NH(CH2)3(OCH2CH2)2O(CH2)3NH-biotin}
modifications: disulfide 7-14
notes: also called C-terminal biotin tagged BACE020 peptide
Fold Decrease in Binding EC50 (Mut)/EC50 (WT) [1]: 0.8 fold
Fold Decrease in Binding EC50 (Mut)/EC50 (WT) [2]: 1.1 fold
Fold Decrease in Binding EC50 (Mut)/EC50 (WT) [3]: 0.9 fold
Fold Decrease in Binding EC50 (Mut)/EC50 (WT) [4]: 73.6 fold
Fold Decrease in Binding EC50 (Mut)/EC50 (WT) [5]: 4 fold
Fold Decrease in Binding EC50 (Mut)/EC50 (WT) [6]: 568 fold
Fold Decrease in Binding EC50 (Mut)/EC50 (WT) [7]: 690 fold
